The values that follow come from patent publication US11433099B2, “Immunotherapy with B*08 restricted peptides and combination of peptides against cancers and related methods” (Immatics Biotechnologies GmbH, priority 2018, dated 2022).

The test system of experiment [1] is CD8+ T cells of healthy HLA-B*08 donors. The experiment can be described thus: In vitro T-cell priming assay with aAPCs loaded with peptide/MHC complexes and anti-CD28 antibody, pMHC multimer readout. It counts as cell-based, human. The settings on record: in vitro immunogenicity, HLA class I peptides, Table 10B. From the text: In order to obtain information regarding the immunogenicity of the TUMAPs of the present invention, the inventors performed investigations using an in vitro T-cell priming assay based on repeated stimulations of CD8+ T cells with artificial antigen presenting cells (aAPCs) loaded with peptide/MHC complexes and anti-CD28 antibody.
In order to perform in vitro stimulations by artificial antigen presenting cells loaded with peptide-MHC complex (pMHC) and anti-CD28 antibody, the inventors first isolated CD8+ T cells from fresh HLA-B*08 leukapheresis products via positive selection using CD8 microbeads (Miltenyi Biotec, Bergisch-Gladbach, Germany) of healthy donors obtained from the University clinics Mannheim, Germany, after informed consent.
PBMCs and isolated CD8+ lymphocytes were incubated in T-cell medium (TCM) until use consisting of RPMI-Glutamax (Invitrogen, Karlsruhe, Germany) supplemented with 10% heat inactivated human AB serum (PAN-Biotech, Aidenbach, Germany), 100 U/ml Penicillin/100 μg/ml Streptomycin (Cambrex, Cologne, Germany), 1 mM sodium pyruvate (CC Pro, Oberdorla, Germany), 20 μg/ml Gentamycin (Cambrex). 2.5 ng/ml IL-7 (PromoCell, Heidelberg, Germany) and 10 U/ml IL-2 (Novartis Pharma, Nornberg, Germany) were also added to the TCM at this step.
Generation of pMHC/anti-CD28 coated beads, T-cell stimulations and readout was performed in a highly defined in vitro system using four different pMHC molecules per stimulation condition and 8 different pMHC molecules per readout condition.
The purified co-stimulatory mouse IgG2a anti human CD28 Ab 9.3 (Jung et al., 1987) was chemically biotinylated using Sulfo-N-hydroxysuccinimidobiotin as recommended by the manufacturer (Perbio, Bonn, Germany). Beads used were 5.6 μm diameter streptavidin coated polystyrene particles (Bangs Laboratories, Illinois, USA).
800.000 beads/200 μl were coated in 96-well plates in the presence of 4×12.5 ng different biotin-pMHC, washed and 600 ng biotin anti-CD28 were added subsequently in a volume of 200 μl. Stimulations were initiated in 96-well plates by co-incubating 1×10^6 CD8+ T cells with 2×10^5 washed coated beads in 200 μl TCM supplemented with 5 ng/ml IL-12 (PromoCell) for 3 days at 37° C. Half of the medium was then exchanged by fresh TCM supplemented with 80 U/ml IL-2 and incubating was continued for 4 days at 37° C. This stimulation cycle was performed for a total of three times. For the pMHC multimer readout using 8 different pMHC molecules per condition, a two-dimensional combinatorial coding approach was used as previously described (Andersen et al., 2012) with minor modifications encompassing coupling to 5 different fluorochromes. Finally, multimeric analyses were performed by staining the cells with Live/dead near IR dye (Invitrogen, Karlsruhe, Germany), CD8-FITC antibody clone SK1 (BD, Heidelberg, Germany) and fluorescent pMHC multimers. For analysis, a BD LSRII SORP cytometer equipped with appropriate lasers and filters was used. Peptide specific cells were calculated as percentage of total CD8+ cells. Evaluation of multimeric analysis was done using the FlowJo software (Tree Star, Oregon, USA). In vitro priming of specific multimer+CD8+ lymphocytes was detected by comparing to negative control stimulations.

A further experiment deals with HLA-B*08:01 (Homo sapiens, UniProt P01889). Put plainly: MHC binding assay (UV-ligand exchange, beta2m ELISA). Particulars: MHC class I binding score; binding to HLA-B*08:01 ranged by peptide exchange yield (UV-ligand exchange, β2m ELISA). Summed up: (§1)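 Peptide–HLA complexes generated by UV-ligand exchange of a UV-cleavable peptide for the test peptide; exchange yield read by β2m ELISA on streptavidin capture (samples diluted 100-fold, 1 h 37 °C), HRP anti-β2m, TMB, A450. Quantified against refolded HLA-A*02:01/MLA-001 monomer standards (15-500 ng/ml).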

The next experiment has as its target HLA-B*44:05 (Homo sapiens, UniProt P01889, A223V/A65T/A93T/A95T/D201E/D98Y/E176V/E187L/E204Q/E69K/G107R/H137Y/K202T/L105A/L119I/N104T/N87E/Q56L/Q94N/R106L/R155S/R180D/S101N/S121R/S35A/S48T/T118I/V36M/W191S/Y91S). The description is as above. The settings on record: Table 11B, peptide exchange yield. The method, boiled down: as §1
The target in a further experiment is HLA-A*02:01 (Homo sapiens, UniProt P04439, D140Y/D185E/D98H/E176V/E277Q/G131W/G231S/I119V/I121R/I166T/I218V/L300P/L318F/N151K/N90K/P208A/P217A/Q86G/Q94H/R138H/R169H/T345S). The description is as above. The settings on record: Table 11C, peptide exchange yield. Summed up: as §1

Turning to “71 (HIRIKHTF; listed as Homo sapiens) [compound 71]”, the “Wells positive [%]” value in experiment [1] is recorded as “++ (20%-49% = ++)”. In the experiment with HLA-B*08:01, the Peptide exchange result is listed as “+++ (50% = +++)”.

Take “74 (RLKLRYEGL; listed as Homo sapiens) [compound 74]”: the “Wells positive [%]” value in experiment [1] was “++ (20%-49% = ++)”. Moreover, in the experiment with HLA-B*08:01, the Peptide exchange result is listed as “+++ (50% = +++)”.

For “75 (YARLKNVLL; listed as Homo sapiens) [compound 75]”, in experiment [1], the “Wells positive [%]” value was “+++ (50%-69%= +++)”. Besides, in the experiment with HLA-B*08:01, the Peptide exchange entry is recorded as “+++ (50% = +++)”.

As to “76 (HPRLKVNLL; listed as Homo sapiens) [compound 76]”, the “Wells positive [%]” value in experiment [1] was “+ (<20% = +)”. For the same substance, in the experiment with HLA-B*08:01, the Peptide exchange entry is reported as “+++ (50% = +++)”.

Take “78 (DGHMKVFSL; listed as Homo sapiens) [compound 78]”: the “Wells positive [%]” value in experiment [1] is listed as “++ (20%-49% = ++)”. In the experiment with HLA-B*08:01, the Peptide exchange result is “++ (20% = ++)”.

Turning to “80 (EVYLRMYQL; listed as Homo sapiens) [compound 80]”, in experiment [1], the “Wells positive [%]” value is on record as “+++ (50%-69%= +++)”. For the same substance, the Peptide exchange entry with HLA-B*08:01 is recorded as “+++ (50% = +++)”.

“82 (SIRKRPML; listed as Homo sapiens) [compound 82]”: the “Wells positive [%]” value in experiment [1] is “+ (<20% = +)”. Also, in the experiment with HLA-B*08:01, the Peptide exchange entry is “++ (20% = ++)”.

As to “83 (FVLLRSVDL; listed as Homo sapiens) [compound 83]”, the “Wells positive [%]” value in experiment [1] was “+++ (50%-69%= +++)”. Also, in the experiment with HLA-B*08:01, the Peptide exchange result is listed as “+++ (50% = +++)”.

As to “86 (RPIHHPLVL; listed as Homo sapiens) [compound 86]”, the “Wells positive [%]” value in experiment [1] is recorded as “+ (<20% = +)”. Also, the Peptide exchange entry in the experiment with HLA-B*08:01 is given as “++ (20% = ++)”.

On to “89 (VPYTKVQL; listed as Homo sapiens) [compound 89]”, for which the “Wells positive [%]” value in experiment [1] was “+ (<20% = +)”. For the same substance, the Peptide exchange result with HLA-B*08:01 is “+++ (50% = +++)”.

With “290 (EEFLTPKKL; listed as Homo sapiens) [compound 290]”, the Peptide exchange entry with HLA-B*44:05 is given as “+++ (≥50% = +++)”.

As to “291 (YVYANHFTEA; listed as Homo sapiens) [compound 291]”, the Peptide exchange entry in the experiment with HLA-A*02:01 is reported as “++++ (≥75% = ++++)”.
